Laboratory results from article PMC4232046.
pKd: −log10 of the molar value.

Experiments:
[1] = test system: CBC (HapB/HapC/HapE core CCAAT-binding complex) (Aspergillus fumigatus); assay: SPR; details: SPR Biacore T200, 25 C; 10 mM phosphate pH 7.4, 2.7 mM KCl, 137 mM NaCl, 1 mM DTT, 0.005% surfactant P20, 10 ug/ml poly(dI-dC); biotin-DNA on streptavidin CM3 …
[2] = target: CBC (HapB/HapC/HapE core CCAAT-binding complex);HapX(24-158) (Aspergillus fumigatus;Aspergillus fumigatus) (UniProt Q4WER3); assay: SPR; details: SPR Biacore T200, 25 C; 10 mM phosphate pH 7.4, 2.7 mM KCl, 137 mM NaCl, 1 mM DTT, 0.005% surfactant P20, 10 ug/ml poly(dI-dC); biotin-DNA on streptavidin CM3 …
[3] = target: Aspergillus fumigatus core CCAAT-binding complex (HapB(230–299), HapC(40–137), HapE(47–164)) (Aspergillus fumigatus); assay: SPR; Biacore T200, 25°C; biotinylated 37-bp cccA promoter duplex (full motif) on streptavidin-coated CM3 chip; CBC injected, HapX(24–158) co-injected on preformed binary CBC/DNA complexes in the steady-state phase; 10 mM phosphate pH 7.4, 2.7 mM KCl, 137 mM NaCl, 1 mM DTT, 0.005% P20, 10 μg/ml poly(dI-dC); 1:1 model with mass transport term

AAATCCACCAATCAACGCCTCCGTGATTGTCAGCAAT (double strand) [cccAp-369-37]
pKd [1]: 9.15 | pKd [2]: 8.71

Aspergillus fumigatus HapX(24–158) (from UniProt Q4WER3 24-158) (domain or fragment)
KD on CBC-coated DNA (preformed CBC/DNA complex, 37-bp cccA promoter duplex) [3]: 1.97 nM | stoichiometry N (HapX chains per CBC) [3]: 2
